Numbering of substitutions follows the chain as printed. In names and notes the source's numbering stands. Several values for one entry are separate records, joined by “and”; a condition that tells them apart may be missing. Identical values can stand only once.

Experiment [1] deals with T1, human Neurofascin ECD-His6 (8208-NF-050, R&D Systems) (human).
T1 chain: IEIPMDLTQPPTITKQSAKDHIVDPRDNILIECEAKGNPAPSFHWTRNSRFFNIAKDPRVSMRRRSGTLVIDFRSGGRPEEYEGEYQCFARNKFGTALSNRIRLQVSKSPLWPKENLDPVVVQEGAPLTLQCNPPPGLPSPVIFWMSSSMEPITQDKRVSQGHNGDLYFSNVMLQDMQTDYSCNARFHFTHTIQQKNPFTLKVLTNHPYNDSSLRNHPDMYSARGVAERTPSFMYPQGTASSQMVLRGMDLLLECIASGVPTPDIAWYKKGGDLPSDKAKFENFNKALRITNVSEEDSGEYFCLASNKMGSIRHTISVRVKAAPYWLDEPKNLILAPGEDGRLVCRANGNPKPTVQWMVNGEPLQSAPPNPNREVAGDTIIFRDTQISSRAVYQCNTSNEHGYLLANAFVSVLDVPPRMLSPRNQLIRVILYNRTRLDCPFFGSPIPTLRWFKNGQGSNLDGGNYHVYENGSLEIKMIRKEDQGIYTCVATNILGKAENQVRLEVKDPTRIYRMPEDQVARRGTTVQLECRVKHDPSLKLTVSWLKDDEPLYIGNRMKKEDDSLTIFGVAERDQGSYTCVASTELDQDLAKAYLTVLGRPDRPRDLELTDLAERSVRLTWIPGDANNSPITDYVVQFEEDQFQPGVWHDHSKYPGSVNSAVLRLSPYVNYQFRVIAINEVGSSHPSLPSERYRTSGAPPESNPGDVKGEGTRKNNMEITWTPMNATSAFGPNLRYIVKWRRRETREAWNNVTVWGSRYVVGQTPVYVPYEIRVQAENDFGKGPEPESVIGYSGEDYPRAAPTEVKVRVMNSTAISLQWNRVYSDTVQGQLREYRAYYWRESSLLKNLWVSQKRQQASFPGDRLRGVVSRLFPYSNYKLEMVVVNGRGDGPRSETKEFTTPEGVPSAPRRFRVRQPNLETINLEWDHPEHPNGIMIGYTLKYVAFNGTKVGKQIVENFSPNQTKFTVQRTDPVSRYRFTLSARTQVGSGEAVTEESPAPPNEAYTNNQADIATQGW
The experiment can be described thus: BLI. (BLI is a label-free optical method that tracks binding on a fibre tip over time.)

The target of experiment [2] is T2, human PTPRD ECD-His6 (ACROBiosystems) (human, UniProt P23468 21-1265).
T2 chain: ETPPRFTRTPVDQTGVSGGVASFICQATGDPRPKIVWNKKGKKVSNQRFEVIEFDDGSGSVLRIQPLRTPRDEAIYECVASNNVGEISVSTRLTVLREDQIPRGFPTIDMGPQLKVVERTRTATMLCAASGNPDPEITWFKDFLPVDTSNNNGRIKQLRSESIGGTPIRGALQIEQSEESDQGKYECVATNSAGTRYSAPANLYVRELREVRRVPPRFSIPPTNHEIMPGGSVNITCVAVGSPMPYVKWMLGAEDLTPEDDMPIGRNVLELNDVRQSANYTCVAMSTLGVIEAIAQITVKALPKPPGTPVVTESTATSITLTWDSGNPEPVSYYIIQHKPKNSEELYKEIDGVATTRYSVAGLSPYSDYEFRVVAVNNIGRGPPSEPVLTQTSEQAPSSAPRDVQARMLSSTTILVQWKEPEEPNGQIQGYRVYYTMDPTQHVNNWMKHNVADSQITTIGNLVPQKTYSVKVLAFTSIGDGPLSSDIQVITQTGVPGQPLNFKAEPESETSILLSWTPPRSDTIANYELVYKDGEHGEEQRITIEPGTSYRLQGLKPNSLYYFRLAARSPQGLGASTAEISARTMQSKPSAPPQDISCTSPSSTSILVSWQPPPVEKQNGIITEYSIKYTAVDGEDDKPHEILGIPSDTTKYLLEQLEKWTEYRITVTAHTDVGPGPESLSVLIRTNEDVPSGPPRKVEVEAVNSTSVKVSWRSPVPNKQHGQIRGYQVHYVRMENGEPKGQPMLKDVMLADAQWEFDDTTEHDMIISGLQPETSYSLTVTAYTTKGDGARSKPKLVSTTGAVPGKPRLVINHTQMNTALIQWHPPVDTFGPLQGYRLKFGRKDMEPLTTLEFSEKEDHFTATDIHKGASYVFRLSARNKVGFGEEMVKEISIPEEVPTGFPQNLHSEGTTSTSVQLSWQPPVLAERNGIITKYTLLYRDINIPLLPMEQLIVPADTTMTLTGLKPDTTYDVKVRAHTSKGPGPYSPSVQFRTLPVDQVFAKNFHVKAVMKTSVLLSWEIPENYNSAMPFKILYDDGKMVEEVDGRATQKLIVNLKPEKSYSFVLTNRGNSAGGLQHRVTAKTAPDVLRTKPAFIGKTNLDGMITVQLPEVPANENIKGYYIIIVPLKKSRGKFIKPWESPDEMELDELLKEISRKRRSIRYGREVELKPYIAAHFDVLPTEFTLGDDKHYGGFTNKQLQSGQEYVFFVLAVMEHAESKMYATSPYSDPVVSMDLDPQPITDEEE
The experiment can be described thus: BLI.

In experiment [3] the target is T3, L1CAM ECD-His6 (777-NC-100, R&D Systems) (UniProt P32004 20-1120).
T3 chain: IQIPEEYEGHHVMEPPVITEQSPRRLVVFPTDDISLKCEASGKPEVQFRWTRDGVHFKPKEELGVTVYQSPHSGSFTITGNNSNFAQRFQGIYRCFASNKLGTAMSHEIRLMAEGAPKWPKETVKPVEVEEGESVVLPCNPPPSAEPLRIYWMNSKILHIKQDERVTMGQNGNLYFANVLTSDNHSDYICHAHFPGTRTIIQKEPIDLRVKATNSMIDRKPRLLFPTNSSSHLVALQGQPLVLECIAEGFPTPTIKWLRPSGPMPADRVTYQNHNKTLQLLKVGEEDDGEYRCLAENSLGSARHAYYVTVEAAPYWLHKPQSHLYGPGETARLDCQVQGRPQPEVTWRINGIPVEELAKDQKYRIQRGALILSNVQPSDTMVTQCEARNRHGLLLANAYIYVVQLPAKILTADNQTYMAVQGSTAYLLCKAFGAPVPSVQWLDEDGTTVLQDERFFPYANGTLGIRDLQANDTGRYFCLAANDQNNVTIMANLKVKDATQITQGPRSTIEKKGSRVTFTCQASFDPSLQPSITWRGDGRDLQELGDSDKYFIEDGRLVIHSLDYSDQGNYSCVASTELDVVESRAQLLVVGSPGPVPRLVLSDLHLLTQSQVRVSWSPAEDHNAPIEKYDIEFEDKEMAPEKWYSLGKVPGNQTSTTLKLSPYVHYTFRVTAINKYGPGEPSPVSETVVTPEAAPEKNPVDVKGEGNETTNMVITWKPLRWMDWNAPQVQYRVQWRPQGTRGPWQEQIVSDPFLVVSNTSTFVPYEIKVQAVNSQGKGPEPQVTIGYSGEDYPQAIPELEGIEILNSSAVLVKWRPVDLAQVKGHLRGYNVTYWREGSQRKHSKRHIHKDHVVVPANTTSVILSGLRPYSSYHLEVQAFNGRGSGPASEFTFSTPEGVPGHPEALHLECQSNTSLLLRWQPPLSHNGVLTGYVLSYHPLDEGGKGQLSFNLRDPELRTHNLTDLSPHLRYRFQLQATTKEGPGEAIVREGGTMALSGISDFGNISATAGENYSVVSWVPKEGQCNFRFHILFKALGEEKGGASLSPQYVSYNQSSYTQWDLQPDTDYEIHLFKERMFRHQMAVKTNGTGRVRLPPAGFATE
Nature of the experiment: BLI.

Experiment [4] deals with human Neurofascin ECD-His6 (human, UniProt O94856 25-1217, Mammalian-expressed glycoprotein is likely. C-terminal His6 tag omitted. The limits are not printed. The paper names catalogue 8208-NF-050 as Neurofascin 155, so the chain runs from after the signal p). Nature of the experiment: quartz crystal microbalance; SLITRK1 ECD-Fc (about 200 fmol) immobilised on the 27 MHz gold resonator through anti-human IgG Fc-HRP; ECD-His6 proteins added in solution; 50 mM Tris-HCl pH 7.6, 15 mM NaCl, 140 mM KCl, 0.5 mM MgCl2, 2 mM CaCl2; 25 ± 1 °C; kon and koff from 1/τ against concentration, KD = koff/kon; each sheet row is one experiment. The settings on record: both partners purified.

The next experiment deals with T4, human PTPRD ECD-His6 (human, UniProt P23468 21-1265).
T4 construct: human PTPRD (receptor-type protein tyrosine phosphatase delta) extracellular domain; No catalogue number printed; also called PTPRδ; source: bought: ACROBiosystems
T4 sequence (looked up): T2 chain
The experiment is described as above. The settings on record: both partners purified.

B1: SLITRK1 ECD-immunoglobulin Fc domain-fusion protein (SLITRK1-WT-Fc) (Fc fusion)
chain: NVTGDVCKEKICSCNEIEGDLHVDCEKKGFTSLQRFTAPTSQFYHLFLHGNSLTRLFPNEFANFYNAVSLHMENNGLHEIVPGAFLGLQLVKRLHINNNKIKSFRKQTFLGLDDLEYLQADFNLLRDIDPGAFQDLNKLEVLILNDNLISTLPANVFQYVPITHLDLRGNRLKTLPYEEVLEQIPGIAEILLEDNPWDCTCDLLSLKEWLENIPKNALIGRVVCEAPTRLQGKDLNETTEQDLCPLKNRVDSSLPAPPAQEETFAPGPLPTPFKTNGQEDHATPGSAPNGGTKIPGNWQIKIRPTAAIATGSSRNKPLANSLPCPGGCSCDHIPGSGLKMNCNNRNVSSLADLKPKLSNVQELFLRDNKIHSIRKSHFVDYKNLILLDLGNNNIATVENNTFKNLLDLRWLYMDSNYLDTLSREKFAGLQNLEYLNVEYNAIQLILPGTFNAMPKLRILILNNNLLRSLPVDVFAGVSLSKLSLHNNYFMYLPVAGVLDQLTSIIQIDLHGNPWECSCTIVPFKQWAERLGSEVLMSDLKCETPVNFFRKDFMLLSNDEICPQLYARISPTLTSHSKNSTGLAETGTHSNSYLDTSRVS
With B1, the figures for the dissociation rate constant (koff) in experiment [1], in experiment [2] and in experiment [3] were 0.00256 s⁻¹, 0.00351 s⁻¹ and 0.00088 s⁻¹, respectively.

B2: SLITRK1-A444S-Fc (Fc fusion, human, UniProt Q96PX8 18-616, looked up)
chain: B1 chain with A427S
notes: signal peptide in the construct; human SLITRK1 extracellular domain, amino acid number 1-616 in NP_443142, with the patient-derived mutation A444S; A444S was found in patients with BPD, so it occurs in nature; also called SLITRK1 ECD-Fc A444S
As for B2, in experiment [4], the Kd (usually the equilibrium constant for the complex coming apart) is 13.3 nM and 16.3 nM and 13.1 nM; the off-rate constant (koff) (in general, the first-order rate constant of dissociation) was 0.00529 s⁻¹ and 0.00613 s⁻¹ and 0.00588 s⁻¹; the kon – broadly, a measure of how fast the partners come together – is 398000 M⁻¹ s⁻¹ and 376000 M⁻¹ s⁻¹ and 451000 M⁻¹ s⁻¹.

B3: SLITRK1-S330A-Fc (Fc fusion, human, UniProt Q96PX8 18-616, looked up)
chain: B1 chain with S313A
notes: signal peptide in the construct; human SLITRK1 extracellular domain, amino acid number 1-616 in NP_443142, with the patient-derived mutation S330A; S330A was found in patients (SCZ/BPD) and controls, so it occurs in nature; also called SLITRK1 ECD-Fc S330A
As to B3, in experiment [4], the Kd was 44.8 nM and 64.2 nM and 68.8 nM; the koff was 0.00635 s⁻¹ and 0.00732 s⁻¹ and 0.00627 s⁻¹; the kon is 142000 M⁻¹ s⁻¹ and 91200 M⁻¹ s⁻¹ and 114000 M⁻¹ s⁻¹.

B4: SLITRK1 ECD-immunoglobulin Fc domain-fusion protein (SLITRK1-WT-Fc) (Fc fusion, human, UniProt Q96PX8 18-616, looked up)
chain: B1 chain
notes: signal peptide in the construct; human SLITRK1 extracellular domain, amino acid number 1-616 in NP_443142; Held on the resonator through anti-human IgG Fc; also called SLITRK1 ECD-Fc
With B4, in the experiment with human PTPRD ECD-His6, the equilibrium dissociation constant (Kd) is 110 nM and 202 nM and 144 nM; the koff was 0.00348 s⁻¹ and 0.00358 s⁻¹ and 0.00347 s⁻¹; the kon is 31600 M⁻¹ s⁻¹ and 17700 M⁻¹ s⁻¹ and 24100 M⁻¹ s⁻¹. Besides, in experiment [4], the equilibrium dissociation constant (Kd) is 18.7 nM and 15.5 nM and 15.7 nM; the dissociation rate constant (koff) was 0.00278 s⁻¹ and 0.00247 s⁻¹ and 0.00243 s⁻¹; the kon is 154000 M⁻¹ s⁻¹ and 149000 M⁻¹ s⁻¹ and 159000 M⁻¹ s⁻¹.

Source of the values: PMC9463131, “SLITRK1-mediated noradrenergic projection suppression in the neonatal prefrontal cortex” (Communications Biology, 2022).
